The values that follow come from patent publication US20140294846.

Where two headings read alike, the source gives them in different places.

Data set [1] has as its system versican in the ECM materials deposited by TA3 transfectants.
The target of data set [2] is versican in the ECM materials deposited by TA3 transfectants. This is another data set of the same source.

Take “ADAMTS-1E/Q, protease-dead mutant of mouse ADAMTS-1 (E386 to Q), v5-epitope tagged”: the “degradation of versican in ECM of TA3 transfectants (Western blot, anti-DP antibody)” value in data set [1] was “expression of ADAMTS-1E/Q but not ADAMTS-1NTF, ADAMTS-1CTF inhibits the degradation”.

B1: full-length mouse ADAMTS-1, v5-epitope tagged (wild type) (protein)
chain: ARGAHGRPTEEDEELVLPSLERAPGHDSTTTRLRLDAFGQQLHLKLQPDSGFLAPGFTLQTVGRSPGSEAQHLDPTGDLAHCFYSGTVNGDPGSAAALSLCEGVRGAFYLQGEEFFIQPAPGVATERLAPAVPEEESSARPQFHILRRRRRGSGGAKCGVMDDETLPTSDSRPESQNTRNQWPVRDPTPQDAGKPSGPGSIRKKRFVSSPRYVETMLVADQSMADFHGSGLKHYLLTLFSVAARFYKHPSIRNSISLVVVKILVIYEEQKGPEVTSNAALTLRNFCSWQKQHNSPSDRDPEHYDTAILFTRQDLCGSHTCDTLGMADVGTVCDPSRSCSVIEDDGLQAAFTTAHELGHVFNMPHDDAKHCASLNGVSGDSHLMASMLSSLDHSQPWSPCSAYMVTSFLDNGHGECLMDKPQNPIKLPSDLPGTLYDANRQCQFTFGEESKHCPDAASTCTTLWCTGTSGGLLVCQTKHFPWADGTSCGEGKWCVSGKCVNKTDMKHFATPVHGSWGPWGPWGDCSRTCGGGVQYTMRECDNPVPKNGGKYCEGKRVRYRSCNIEDCPDNNGKTFREEQCEAHNEFSKASFGNEPTVEWTPKYAGVSPKDRCKLTCEAKGIGYFFVLQPKVVDGTPCSPDSTSVCVQGQCVKAGCDRIIDSKKKFDKCGVCGGNGSTCKKMSGIVTSTRPGYHDIVTIPAGATNIEVKHRNQRGSRNNGSFLAIRAADGTYILNGNFTLSTLEQDLTYKGTVLRYSGSSAALERIRSFSPLKEPLTIQVLMVGHALRPKIKFTYFMKKKTESFNAIPTFSEWVIEEWGECSKTCGSGWQRRVVQCRDINGHPASECAKEVKPASTRPCADLPCPHWQVGDWSPCSKTCGKGYKKRTLKCVSHDGGVLSNESCDPLKKPKHYIDFCTLTQCS
As for B1, the “degradation of versican in ECM of TA3 transfectants (Western blot, anti-DP antibody)” value in data set [2] is reported as “increased expression of exogenous ADAMTS-1 but not ADAMTS-1minusTSP-1 on top of the endogenous ADAMTS-1 promotes degradation of versican”. Further, in the data set with P97857, the “auto-proteolytic cleavage of purified ADAMTS-1 in vitro (Western blot, anti-v5)” value is given as “ADAMTS-1 was auto-proteolytically cleaved to release v5-epitope tagged C-terminal cleavage fragments”.
